Assay: yeast display, Sf9 membrane polyspecificity reagent, FACS + sequencing; frameworks hold sequencing errors
Method in brief: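 Polyreactivity labels are assigned by the sorting gate from which each nanobody was recovered. The gates were low and high (top ~1%), set on anti-HA fluorescence for expression and streptavidin fluorescence for reagent binding. Before sorting, galactose-induced (36–48 hours) yeast display cells were stained for 1 hour at 4 °C with 10% biotinylated, detergent-solubilized Sf9 membrane reagent.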

Sequence	polyreactivity (PSR sort gate)
QVQLVESGGGLVQAGGSLRLSCAASGRIFDVNVMGWYRQAPGKERELVADISSGGGTDYADSVKGRFTISRDNAKNTVYLQMNILKQEDTAVYSCDWGQGTQVTVSS	low polyreactivity
QVQLVESGGGLVQAGGSLSLSCAASGSTFDRYAMGWYRQAPGKERELVAAISHSGGRTYYADSVKGRFTISRDNAKNTVYLQMNSLKPEDTAVFYCAAKSRSGTEAAYGYWGQGTQVTVSS	low polyreactivity
QVQLVESGGGLVQAGGSLRLSWAASGSIFKYYAMGWYRQAPGKDRELVADISRSGGRTYYADSVKGRFTISRDNAKNTVFLQMNSLKPEDTAVYYCAKRYSRGSQDDYWGQGTQVTVSS	high polyreactivity
QVQLVESGGGLVQAGGSLRLSCAASGSTFTGNSMGWYRQAPGKERELVAAISRSGGSTFYADSVKGRFTISRDNAKNTVSLQMNSLKPEDTAVYYCATRYVVDMDYWGQGTQVTVSS	high polyreactivity
QVQLVESGGGLVQAGGSHRLSCAASGFIFGRNAMGWYRQATGKDRELVDANTRSGGSTYYADSVKGRFTISRDNAKNTVYLQLYSLKPEDTAVYYCAKGLFTWGVFRVGIRDDYWGQGTQVTVSS	high polyreactivity
QVQLVESGGGLVQAGGSLRLSCAASGTTFDVYAMGWSRQAPGKERELVAAITSGGTTNYADSVKGRFTISRDNAKNPVFFQMNSLKPEDTAVYYCAKDSRNVYWDYGYWGQGTQVSVSS	low polyreactivity
QVQLVESGGGLVQAGGSLRLSCAASGFTFLTYAMGWYRQAPGKERELVAAIDSGDSTKYADSVKGRFTISLDNAKNTVYLQMNSLKPEDTAVYYCNASRRYHVRAPYDYWGQGTQVTVSS	low polyreactivity
QVQLVESGGGLVQEGGSLSLSCAASGITLSLYAMGRYRQAPGKERELVAAISRSGGSTYYAYSVKGRFTISRDNAKNTVYLQMNSLKPVDTAFFYCATSWTPNYFVTSDYWGQGTQVTVSS	high polyreactivity
QVQLVESGGGLVQAGGSLRLSCAASGSIFNVYAMGWYRQAPGKERELVAAISDGDGSTFYADSVKGRFTISRDNAKNTVYLQMNSLKPEDTAVYYCAKDYRWDRKFDYWGQGTQVTVSS	low polyreactivity
QVQLVESGGGLVQAGGSLRLSCAASGSTFTHYAMGWYRQAPGKERELVAAISSGGSTYYADSVKGRFTISRDNAKNTVYLQMNILKPEDTAVYYCASDYYWHDWWYPHDYWGQGTQVTLSS	low polyreactivity
QVQLVESGGGLVQAGGSLRISCAASGLTFEVYAMGWYRQAPGIERELVATITYSGGITYYADSVKGRFTISRDNAKNTVYLQMNSLKPEDTAVYYRIGFGGDYDYWGQGTQVTVSS	low polyreactivity
QVQLVESGGGLVQAGGSLRFSCAASGRTFTVYAMGWYRQAPGKERELVAAINYSVGSTYYADSVKGRFTISRDNAKNTVYLQMNSLKPEDTAVYYCAADLYHFSYSYSYIRYDYWGQGTQVTVSS	low polyreactivity
QVQLVESGGGLVQAGGSLRLSCAASGRTFYYYAMGWYRQAPGKERELVAGISWSAGSTYYADSVKGRFTISRDNAKNTVYLQMNSLKPEDTAVYYCAARYWQSYRSQVTHSSTLDYWGQGTQVTVSS	low polyreactivity
QVQLVESGGGLVQAGGSLRLSCAASGRTFWTNAKGWYRQAPGKERDFFAAISWRGASTFYADSVKGRFTISRYNAKNTVYLQMNSLKPEDTAVYYCAAQSRTRSFYGKYDSWGQGTQVTVSS	low polyreactivity
QVQLVESGGGLVQAGGGLRLSCAASGRIFFYAMGWYRQAPGKQRELVAAISWSGGSTYYADSVKGRFTISRDNAKNTVYLQMNSLKPEDTAVYYCAADYEGWGYDYRGDYWGQGTQLTVSS	low polyreactivity
QVQLVESGGGLVQAGGSLRLSCAASGSIFARYAMGWYRQAPGKERELVAAISGSGASTYYADSVKGRFTISRDNAKNTVFLQMNSLKPEDTAVYYCARPFLRRPTYRFESGYGYWGQGTQVTVSS	high polyreactivity
QVQLVESGGGLVQAGGSLRLSCAASGSTFPSYAMGWYRQAPGKERELVAAINRSGGSTYYADSVKGRFTISRDNAKNTVYLQMNSLKPEYTAVYYCATGLTTGGGYYWGQGTQVTVSS	high polyreactivity
QVQLVESGGGLVQAGGSLRLSCAASGRTFFYYAMGWYRQAPGKERELVAAISTNGGSTYYADSVKGRFTISRDNAKNTVYLQMNSLKPEDTAVYYCNTYATPHRSGGGLGGHYYWGQGTQVTVSS	low polyreactivity
QVQLVESGGGLVQAGGSLRLSCAASGFIFYQYAMGWYRQAPGKERELVAAITSRGGRTYYADSVKGRFTISRDNAKNTVYLQMNSLKPEDTAVYYCAVRKASDYYYWGQGTQVTVSS	high polyreactivity
QVQLVESGGGLVQAGGSLRLRCAASGLTFTGNAMGWYRQAPGKEREFVAAIRWSAGSTYYADSVKARFTISRDNAKNTVYLHMNSLKPEDTAVYYCKAALNVSGHYTNDSWGQGTQVTLSS	low polyreactivity
QVQLVESGGGLVQAGGSLRISCAASGSNFNPYDMGGYRQAPGKESELVAAIRTAGSTYYADSVKGRFTISRDNAKNTVYLQMISLNPEDTAVYYCNADEGFLYSAYEYDYWGQGTQVTVSS	low polyreactivity
QVQLVESGGGLVQAGGSLRLSCASSGYIFAGNAMGWYRQAPGKERELVAVITRGGRTYYADSVKGRFTISRDNAKNTVYLQMNSLKPEDTAVYYCAARYPYRGWGQGTQVTVSS	high polyreactivity

Sequence	polyreactivity (PSR sort gate)
QVQLVESGGGLVQAGGSLRLSCAASGSIYVPNDMGWYRQAPGKEREFVAAITESDGSTYYADSVKGRFTISRDNAKNTVYLQMNSLKPEDTAVYYCATDSTGVTIVHFDYWGQGTQVTVSS	low polyreactivity
QVQLVESGGGFVQAGGSLRLSFAASGFTFGRYAMGWYIQAPGKERELVAAISWSDGSTYYADSVKGRFTISRDNAKNTVYLQMNSLKPQDTAVYYCAARYGGGISQAKYYYWGQGTQVTVSS	high polyreactivity
QVQLVESGGGLVQAGGSLRLSCAASGSIFSGYTMGWYRQAPGKDRELVAGISYRGGSTYYADSVKGRFTISRDNAKNTVYLQMNSLKPEDTAVYYCAALYYRRGSLNYEYWGQGTQVTVSS	high polyreactivity
QVQLVESGGGLVQAGGSLSLSCAASGSIFQPYVMGWYRQAPGKEREFVATIRYSGGITYADSVKGRFTISRDNSKNTVYLQMNSLKPVVTAVYYCACYCYCYWGQGTQVNVSS	low polyreactivity
QVQLVESGGGLVQAGGSLRLSCASSGYTFTIYAMGWYRQAPGKERELVAAITGRGGRTNYADSVKGRFTISRDNAKNTVYLQIYRLIPVDTAVYYCNAVTKVVYHGPYGYDYWGQGTQVTVSS	high polyreactivity
QVQLVESVGGLVQAGGSLRLSCAASGITFAWYALGWYRQAPGKERELVAAITWSGDSTYYADSVKGRFTISRDNAKNTVYLQMNSLKPEDTAVYYCAAAYFSSGYKYYYWGQGTQVTVSS	high polyreactivity
QVQLVESGGGLVQAGGSLRLSCAASGFTFIYYAMGWYRQAPGKERELVAAISRRGGSTYYADSVKGRFTISRDNAKNTVYLQMNSLKPEDTAVYYCAADYTSAILRSDYWGQGTQVTVSS	high polyreactivity
QVQLVESGGGLVQAGGSLRLSCAASGFTIRWYTMGWYRQAPGKERELVAAITSGGGTYYADSVKGRFTISRDNAKNTVYLQMNILKPEDTAVYYCAARTLSVARRRPYYYWGQGTQVTGSS	high polyreactivity
PVQLVESGGGLVQAGGSLRLSCAASGFTFANYAMGWYRQAPGKERELVAAISRGGTSTYYADSVKGRFTISRDNAKNTVYFQMNSLKPEDTEVYFCNAVKVGYSLYDYWGQGTQVTVSS	high polyreactivity
QVQLVESGGGLVQAGGSLRLSCAASGFIFIFYAMGWYRQAPGKERELVAAITWSDDSTYYADSVKGRFTISRDNAKNTVYLQMNSLKPEDTAVYYCAASYYWYHLRRKYDYWGQGTQVTVSS	low polyreactivity
QVQLVESGGGIVQAGGSLRLSCAASGSTLNSYVMGWYRQAPGKERELVATIRSGSSTNYADSVKGRFTISRDNAKYPDYLLMNSLKPEDTAVYSCAADAYSLCYDSWGQGTQVTVSS	low polyreactivity
QVQLVESGGGLVQAGGSLRLSCAASGRIFFYYAKGWSRQAPGKARELVAAINRGGRTYYADSVKGRFTISRDNAKNTVYLQMNSLKPEDTADYYCAADCHTAKSNFDYWGQGTQVTVSS	low polyreactivity
QVQLVESGGGLVQAGGSLRLSCAASGRTFHSYAMGWYRQAPGKERELVAAIRGRGGTTYYADSVKGRFTFSRDNAKNTVYLQMNSLKPEDTAVYYCNAVVRRYFTAAATYDYWGQGTQVTVSS	high polyreactivity
QVQLVESGGGLVQAGGSLRLSCAASGFIFDTNAMGLYRQAPGKERELVATISTSGGSTSYADSVKGRFTISRDNAKNTVYLQMNSLTPEDTAVYYCAARWYFPDRVKYDYWGQGTQVTVSS	low polyreactivity
QVQLVESGGGLVQAGGSLRLSCAASGFIFGHYAMGWYRQAPGKERELVAAIRSRGGDRTYADSVKGRFTISRDNAKNTVYLQMNSLKPEDTAVYYCAADGPGTSEDDYWGQGTQVTVSS	high polyreactivity
QVQLVESGGGLVQAGGSLRLSCAASGRTFNEYAMGWYRQAPGKERELVAAISSSGDSTYYADSVKGRFTISRDNAKNTVYLQMNSLKPEDTAVYYCAAQVVVWYPYVYFPGYDYWGQGTQVTVSS	low polyreactivity
QVQLVESGGGLVQAGGSLRLSCAASGSIFSDYALGWYRQAPGKERELVAAITQSGGSTYADSVKGRFTISRDNAKNTVYLQMNSLIPEDTAVYYCAADEVPGFGYPPYPWFDYWGQGTQVTVSS	low polyreactivity
QVQLVESGGGLVQAGGSLRLSCAASGFTFSKYTMGWYRQAPGKERELVAAITSGGSTNYADSVKGRFTISRDNAKNTVYLQMNSLKPEDTAVYYCNKRHIAHNAVGAGLELDYWGQGTQVTVSS	low polyreactivity
QVQLVESGGGLVQAGGSLRLSCAASGITSRQYAMGWYRQAPGKERELVAAISFSGGRTYYADSVKGRFTISRDNAKNTVYLQMNSLKPEDTAVYYCATRNRYSPRDYWGQGTQVTVSS	high polyreactivity
QVQLVESGGGLVQAGGSLRLSCAASGRIFYGYTMGWARQAPGKERQLVAAITWSGGSTYYADSVKGRFTISRDNAKYSVYLQMNSLKPKDTAVYYCAATLGNAADYDYGYWGQGTQVTVSS	high polyreactivity
QVQLVESGGGLVQAGGSLRLSCAASGLIFDLYAMGWYRQAPGKERELVAAITWSGGSTYYADSVKGRFTISRDNAKNTVYLQMNSLKPEDTAVYYCAAETHLWYDFDYWGQGTQVTVSS	high polyreactivity

Source: the nanobody polyreactivity screen of Harvey et al. (2022)
